Measured values from paper PMC11446282 (2024).

B1: PME1 (found with purified B55 variants) [human] / B55α WT (immunopurified, Fig. 2) [not stated] (parent complex)
chain 1: MSALEKSMHLGRLPSRPPLPGSGGSQSGAKMRMGPGRKRDFSPVPWSQYFESMEDVEVENETGKDTFRVYKSGSEGPVLLLLHGGGHSALSWAVFTAAIISRVQCRIVALDLRSHGETKVKNPEDLSAETMAKDVGNVVEAMYGDLPPPIMLIGHSMGGAIAVHTASSNLVPSLLGLCMIDVVEGTAMDALNSMQNFLRGRPKTFKSLENAIEWSVKSGQIRNLESARVSMVGQVKQCEGITSPEGSKSIVEGIIEEEEEDEEGSESISKRKKEDDMETKKDHPYTWRIELAKTEKYWDGWFRGLSNLFLSCPIPKLLLLAGVDRLDKDLTIGQMQGKFQMQVLPQCGHAVHEDAPDKVAEAVATFLIRHRFAEPIGGFQCVFPGC
chain 2: MAGAGGGNDIQWCFSQVKGAVDDDVAEADIISTVEFNHSGELLATGDKGGRVVIFQQEQENKIQSHSRGEYNVYSTFQSHEPEFDYLKSLEIEEKINKIRWLPQKNAAQFLLSTNDKTIKLWKISERDKRPEGYNLKEEDGRYRDPTTVTTLRVPVFRPMDLMVEASPRRIFANAHTYHINSISINSDYETYLSADDLRINLWHLEITDRSFNIVDIKPANMEELTEVITAAEFHPNSCNTFVYSSSKGTIRLCDMRASALCDRHSKLFEEPEDPSNRSFFSEIISSISDVKFSHSGRYMMTRDYLSVKIWDLNMENRPVETYQVHEYLRSKLCSLYENDCIFDKFECCWNGSDSVVMTGSYNNFFRMFDRNTKRDITLEASRENNKPRTVLKPRKVCASGKRKKDEISVDSLDFNKKILHTAWHPKENIIAVATTNNLYIFQDKVN
B2: IER2 (found with purified B55 variants) [human] / B55α WT (immunopurified, Fig. 2) [not stated] (parent complex)
chain 1: MEVQKEAQRIMTLSVWKMYHSRMQRGGLRLHRSLQLSLVMRSARELYLSAKVEALEPEVSLPAALPSDPRLHPPREAESTAETATPDGEHPFPEPMDTQEAPTAEETSACCAPRPAKVSRKRRSSSLSDGGDAGLVPSKKARLEEKEEEEGASSEVADRLQPPPAQAEGAFPNLARVLQRRFSGLLNCSPAAPPTAPPACEAKPACRPADSMLNVLVRAVVAF
chain 2: B1 chain 2
B3: CDCA4 (found with purified B55 variants) [human] / B55α WT (immunopurified, Fig. 2) [not stated] (parent complex)
chain 1: MFARGLKRKCVGHEEDVEGALAGLKTVSSYSLQRQSLLDMSLVKLQLCHMLVEPNLCRSVLIANTVRQIQEEMTQDGTWRTVAPQAAERAPLDRLVSTEILCRAAWGQEGAHPAPGLGDGHTQGPVSDLCPVTSAQAPRHLQSSAWEMDGPRENRGSFHKSLDQIFETLETKNPSCMEELFSDVDSPYYDLDTVLTGMMGGARPGPCEGLEGLAPATPGPSSSCKSDLGELDHVVEILVET
chain 2: B1 chain 2
B4: FAM122A [human (endogenous in HeLa)] / B55α WT (immunopurified, Fig. 2) [not stated] (parent complex)
chain 1: MAQEKMELDLELPPGTGGSPAEGGGSGGGGGLRRSNSAPLIHGLSDTSPVFQAEAPSARRNSTTFPSRHGLLLPASPVRMHSSRLHQIKQEEGMDLINRETVHEREVQTAMQISHSWEESFSLSDNDVEKSASPKRIDFIPVSPAPSPTRGIGKQCFSPSLQSFVSSNGLPPSPIPSPTTRFTTRRSQSPINCIRPSVLGPLKRKCEMETEYQPKRFFQGITNMLSSDVAQLSDPGVCVSSDTLDGNSSSAGSSCNSPAKVSTTTDSPVSPAQAASPFIPLDELSSK
chain 2: B1 chain 2

Variants of: B1
Experiment: immunopurification of YFP-B55α variants (IP: YFP), Western blot quantification; read off a plot

Row | Variant | percent of parent [%]
1 | chain 2 H179A | ~170
2 | chain 2 L198A | ~2
3 | chain 2 D197A | ~3
4 | chain 2 F343A | ~3
5 | chain 2 D340A | ~50
6 | chain 2 I284A | ~13
7 | chain 2 F280A | ~130

Continued, values first:

Row | percent of parent [%] | Variant
8 | ~13 | chain 2 Y178A
9 | ~53 | chain 2 Y337A
10 | ~3 | chain 2 L225A
11 | ~9 | chain 2 V228A
12 | ~4 | chain 2 S287A
13 | ~3 | chain 2 T230A

Variants of: B2
Experiment: as above

Row | Variant | percent of parent [%]
14 | chain 2 D197A | ~7
15 | chain 2 I284A | ~65
16 | chain 2 H179A | ~140
17 | chain 2 L198A | ~3
18 | chain 2 D340A | ~2
19 | chain 2 F280A | ~83
20 | chain 2 F343A | ~30

The remaining lines, values ahead:

Row | percent of parent [%] | Variant
21 | ~25 | chain 2 L225A
22 | ~70 | chain 2 V228A
23 | ~67 | chain 2 S287A
24 | ~2 | chain 2 Y337A
25 | ~50 | chain 2 T230A
26 | ~55 | chain 2 Y178A

Variants of: B3
Experiment: as above

Row | Variant | percent of parent [%]
27 | chain 2 F280A | ~110
28 | chain 2 D197A | ~80
29 | chain 2 H179A | ~93
30 | chain 2 L198A | ~40
31 | chain 2 I284A | ~160
32 | chain 2 F343A | ~28
33 | chain 2 D340A | ~28

Second part, the variant after the results:

Row | percent of parent [%] | Variant
34 | ~50 | chain 2 Y337A
35 | ~58 | chain 2 T230A
36 | ~78 | chain 2 V228A
37 | ~130 | chain 2 S287A
38 | ~90 | chain 2 Y178A
39 | ~75 | chain 2 L225A

Variants of: B4
Experiment: as above

Row | Variant | percent of parent [%]
40 | chain 2 L198A | ~0
41 | chain 2 D340A | ~77
42 | chain 2 H179A | ~70
43 | chain 2 F280A | ~140
44 | chain 2 I284A | ~97
45 | chain 2 F343A | ~90
46 | chain 2 D197A | ~0

Continued, values first:

Row | percent of parent [%] | Variant
47 | ~5 | chain 2 Y178A
48 | ~130 | chain 2 L225A
49 | ~100 | chain 2 V228A
50 | ~63 | chain 2 S287A
51 | ~130 | chain 2 Y337A
52 | ~93 | chain 2 T230A
